Experimental findings from paper PMC4939007, “The GH51 α-L-arabinofuranosidase from Paenibacillus sp. THS1 is multifunctional, hydrolyzing main-chain and side-chain glycosidic bonds in heteroxylans” (Biotechnology for Biofuels, 2016) are described below.

Holding throughout (assay): purified protein
The test system of data set [1] is O=[N+]([O-])c1ccc(O[C@@H]2OC[C@@H](O)[C@H](O)[C@H]2O)cc1. Particulars: 50 mM sodium phosphate pH 6.5, 1 mg/mL BSA, 60 °C, 0–40 mM substrate, authors' caution: maximum substrate below 2 x KM.
Data set [2] concerns O=[N+]([O-])c1ccc(O[C@@H]2O[C@@H]([C@H](O)CO)[C@H](O)[C@H]2O)cc1. To be noted: 50 mM sodium phosphate pH 6.5, 1 mg/mL BSA, 60 °C, 0–14 mM substrate, authors' caution: maximum substrate below 2 x KM.
Data set [3] deals with O=[N+]([O-])c1ccc(O[C@@H]2O[C@@H](CO)[C@H](O)[C@H]2O)cc1. Particulars: 50 mM sodium phosphate pH 6.5, 1 mg/mL BSA, 60 °C, 0–5 mM substrate.

Turning to THSAbf (Paenibacillus sp. HanTHS1), the Km came out at 23.8 ± 4.1 mM in data set [1], 8.6 ± 0.9 mM in data set [2] and 0.31 ± 0.1 mM in data set [3]. Besides, the figures for the kcat in data set [1], in data set [2] and in data set [3] were 10.6 ± 0.9 s⁻¹, 327 ± 20 s⁻¹ and 328 ± 23 s⁻¹, respectively. In addition, the catalytic efficiency (kcat/Km) in data set [1] stood at 440 M⁻¹ s⁻¹; in data set [2], 38000 M⁻¹ s⁻¹; in data set [3], 1.05e+06 M⁻¹ s⁻¹.

In general, Km refers to the substrate concentration at which the rate is half of its maximum. What is called kcat is the number of substrate molecules converted per active site and unit of time at saturation. What is called kcat/Km is the turnover number divided by the Michaelis constant.
